“And” between values parts separate entries of the source, which are not always exact repeats. Identical values can stand only once.
What was measured:
[1] = target: transmembrane domain of p7b (p7b-TM) (SARS-CoV); experiment: AUC
[2] = target: transmembrane domain of p7b (p7b-TM) (SARS-CoV); experiment: AUC; remark: listed apart in the source
[3] = target: transmembrane domain of p7b (p7b-TM) (SARS-CoV); experiment: SDS-PAGE
AUC = target: the molecule itself; experiment: AUC
SDS-PAGE = target: the molecule itself; experiment: SDS-PAGE

| Molecule | stoichiometry N [1] | stoichiometry N [2] | stoichiometry N [3] | stoichiometry N (AUC) | stoichiometry N (SDS-PAGE) |
| --- | --- | --- | --- | --- | --- |
| transmembrane domain of p7b (p7b-TM) (domain or fragment) | 2 | 4 | 2 | – | – |
| MIELSLIDFYLCFLAFLLFLVLIMLIIFWFSLELQDHNETCHA (natural protein, also called SARS-2 p7b; SARS-2 7b) [SARS-CoV-2 accessory protein 7b] | – | – | – | 4 | 2 |
| MNELTLIDFYLCFLAFLLFLVLIMLIIFWFSLEIQDLEEPCTKV (natural protein, also called SARS p7b; SARS 7b) [SARS-CoV accessory protein 7b] | – | – | – | 4 and 2 | – |
